Drawing on article PMC10689493 (2023), this text covers Kd and koff for 6 molecules.

First the molecules themselves.
B1: S2P6 mAb (antibody, V domains shown)
VH: EVQLVQSGAEVKKPGASVKVSCKASGYTFTSQYMHWVRQAPGQGLEWIGIINPSGVHTSYAQKFQGRVTLTRDTSTSTLYMELSSLRSEDTAVYYCARGSPKGAFDYWGQGTLVTVSS
VL: not shown
B2: CC40.8 mAb (antibody, V domains shown)
VH: EVQLLESGGGLVQPGGSLRLSCAASGFTFSSYVMTWARQAPGKGLEWVSAISGTGYTYYADSVKGRFTVSRDNSKNTLFLQMSSLRAEDTAVYYCAITMAPVVWGQGTTVTVSS
VL: SYELTQPPSVSVSPGQTARITCSGDALPKRYAYWYQQKSGQAPILVIYEDKKRPSGIPERLSGSKSGTVATLTISGAQVEDEADYYCYSTDSSGNHAVFGGGTQLTVL
B3: S2hlx-Ex19 epitope scaffold (designed binder)
chain: MNLDSFKEELDDYFKEKIVKEFEKLCKELISKYEVKKPTPSPEIKKICEYLKKKHEELKDKYPEEFVKEIFKKMWEVFKKELSKQLKKLGVTNDGGEKYKIVKEDLNYLVDVIKSLEGLSDLDLNWEEIWN
B4: DH1058 mAb (antibody, V domains shown)
VH: QVQLVQSGGGVVQPGRSLRLSCAASGFNFGDFGMHWVRQAPGKGLEWVAVISYEGRNKNHADSVRGRFTISRDNSRNMLYLQMNSLRRGDTAVYYCAKENRDRNYDSWSASYSDYYYGMDVWGQGTTVTVSS
VL: DIVMTQSPSFLSASVGDRVTITCRASQGIDRYLAWYQQKPGSAPKLLIYAASTLQSGVPSRFSGSGSETDFTLTISSLQPDDFATYYCQQLSTYPTITFGQGTRLEIK
B5: S2hlx-7 epitope scaffold (designed binder)
chain: MTSTFDRVATIIAETADIPRETITPESHAIDDLGIDELDFLDIAFAIDKAFGISLPLFKWELDVYFGSATTEQYFVLKNLAARIDELVAAKGA
B6: DH1057.1 mAb (antibody, V domains shown)
VH: EVQLVESGTEVKKPGASVKVSCKTSGYIFTNYYIHWVRQAPGQGLEWMGIFNPNGGGTSYAQKFQGRITLTGNTSANTGYMVLRSLTSEDTAVYYCARDPRTSGDNDGFDMWGQGTKVTVSS
VL: VLTQSPATLSLSPGERATLSCRASQSLSSYNYLAWYQQKPGQAPRLLIYAASKRATGIPARFSGSGSGTDFTLTISSLEPEDFAVYFCQQRSNRPPAWTFGQGTKVEIK

Common to all, as to experiment: SPR
The target of assay [1] is S2hlx-Ex17 epitope scaffold.
Assay [2] addresses S2hlx-Ex20 epitope scaffold.
Assay [3] concerns the target S2hlx-Ex15 epitope scaffold.
The target of assay [4] is S2hlx-13.
Assay [5] has as its target S2hlx-15 epitope scaffold.
For assay [6], the target named is S2hlx-4 epitope scaffold.
The target in assay [7] is S2hlx-14.
Assay [8] deals with S2hlx-1.
Assay [9] addresses S2hlx-8.
Assay [10] deals with DH1057UCA.
The target in assay [11] is CC40.8iGL.
The target in assay [12] is S2P6iGL.
For assay [13], the target named is B1.
The target in assay [14] is B2.
For assay [15], the target named is B6.
Assay [16] deals with B1. The source holds these as a separate data set.
Assay [17] concerns the target B6. The source holds these as a separate data set.
For assay [18], the target named is FP-10 epitope scaffold.
Assay [19] concerns the target FP-2 epitope scaffold.
In assay [20] the target is B1. The source holds these as a separate data set.
In assay [21] the target is B6. The source holds these as a separate data set.
Assay [22] deals with B1. This is another data set of the same source.
Assay [23] addresses B6. The source holds these as a separate data set.

By Kd is commonly meant the equilibrium constant for the complex coming apart. The low end stands for a tighter complex, the high end for a looser complex. Broadly, the koff is the rate constant with which the complex falls apart.

Read-outs that look alike come from different tables or passages of the source.

For B1, the dissociation constant Kd in assay [1] was found to be 29.6 nM; in assay [2], 10.7 nM; in assay [3] it was 6 nM; in [4], 83 nM; in assay [5], 0.7 nM; in assay [6], 47.7 nM. Further, the Kd was 30 nM in [7], 52.8 nM in assay [8] and 63 nM in assay [9]. In addition, the dissociation rate constant (koff) is 0.0082 s⁻¹ in assay [1]; 0.00042 s⁻¹ in assay [2]; 0.0086 s⁻¹ in assay [3]; 0.0017 s⁻¹ in assay [4]; 0.0018 s⁻¹ in [5]; 0.00048 s⁻¹ in assay [6]. Moreover, the koff in [7] was 0.0016 s⁻¹; in assay [8], 0.0027 s⁻¹; in assay [9], 0.00021 s⁻¹.

With B2, the dissociation constant (Kd) in [1] turned out to be 27.1 nM; in assay [2], 10.6 nM; in assay [3], 3.4 nM. In addition, the figures for the off-rate (koff) in assay [1], in [2] and in assay [3] were 0.061 s⁻¹, 0.011 s⁻¹ and 0.0085 s⁻¹, respectively.

With B3, the Kd in assay [10] amounted to 3080 nM; in assay [11], 94.1 nM; in assay [12], 690 nM; in [16], 1.7 nM; in [17], 15.5 nM. Besides, the koff turned out to be 0.0019 s⁻¹ in assay [10]; 0.028 s⁻¹ in [11]; 0.0018 s⁻¹ in [12]; 0.00033 s⁻¹ in assay [13]; 0.02 s⁻¹ in assay [14]; 0.027 s⁻¹ in [15].

In assay [18], B4 came in with a Kd of 0.3 nM and a koff of 0.00068 s⁻¹. In assay [19], this molecule had a Kd of 0.1 nM and an off-rate (koff) of 0.00066 s⁻¹.

B5: the Kd stood at 0.2 nM in assay [20] and 0.6 nM in assay [21]. Besides, the values for the dissociation rate constant (koff) in assay [22] and in assay [23] were 0.0025 s⁻¹ and 0.0026 s⁻¹, respectively.

For B6, the dissociation constant Kd in assay [1] is 12.8 nM; in assay [2], 48.9 nM; in assay [3], 1.7 nM; in assay [4] it was 176 nM; in assay [5], 0.6 nM; in [6], 4480 nM. For the same molecule, the Kd in assay [7] worked out at 404 nM; in assay [8], 353 nM; in [9] it was 175 nM. For the same molecule, the koff in [1] was 0.014 s⁻¹; in assay [2] it was 0.026 s⁻¹; in assay [3], 0.00037 s⁻¹; in assay [4] it was 0.0032 s⁻¹; in assay [5], 0.0014 s⁻¹; in assay [6] it was 0.037 s⁻¹. In addition, the koff in [7] is 0.018 s⁻¹; in assay [8] it was 0.0091 s⁻¹; in [9] it was 0.0015 s⁻¹.
